Substrate: C[C@H]1O[C@@H](O[C@H]2[C@@H](O)C[C@H](O[C@H]3[C@@H](O)C[C@H](O[C@H]4CC[C@@]5(C)[C@H](CC[C@@H]6[C@@H]5C[C@@H](O)[C@]5(C)[C@@H](C7=CC(=O)OC7)CC[C@]65O)C4)O[C@@H]3C)O[C@@H]2C)C[C@H](O)[C@@H]1O
Experiment: cells, lysate or membranes named
Description: TP_TRANSPORTER: uptake in Oatp2-expressing LLC-PK1 cells

B1: Solute carrier organic anion transporter family member 1A4 (Rattus norvegicus) (protein)
chain: MGKSEKRVATHGVRCFAKIKMFLLALTCAYVSKSLSGTYMNSMLTQIERQFGIPTSIVGLINGSFEIGNLLLIIFVSYFGTKLHRPIMIGVGCAVMGLGCFLISLPHFLMGQYEYETILPTSNVSSNSFFCVENRSQTLNPTQDPSECVKEMKSLMWIYVLVGNIIRGIGETPIMPLGISYIEDFAKSENSPLYIGILETGMTIGPLIGLLLASSCANIYVDIESVNTDDLTITPTDTRWVGAWWIGFLVCAGVNILTSFPFFFFPKTLPKEGLQENVDGTENAKEKKHRKKAKEEKRGITKDFFVFMKSLSCNPIYMLFILISVLQFNAFINSFTFMPKYLEQQYGKSTAEVVFLMGLYMLPPICLGYLIGGLIMKKFKVTVKKAAHLAFWLCLSEYLLSFLSYVMTCDNFPVAGLTTSYEGVQHQLYVENKVLADCNTRCNCSTNTWDPVCGDNGLAYMSACLAGCEKSVGTGTNMVFQNCSCIQSSGNSSAVLGLCNKGPDCANKLQYFLIIAIFGCFIYSLAGIPGYMVLLRCIKSEEKSLGVGLHAFCIRILAGIPAPIYFGALIDRTCLHWGTLKCGEPGACRMYDINSFRRLYLGLPAALRGASFVPAFFILRLTRTFQFPGDIESSKTDHAEMKLTLKESECTEVLRSKVTED
  Km: 1.07 µM
